Data as given in article PMC5154190, “HBV maintains electrostatic homeostasis by modulating negative charges from phosphoserine and encapsidated nucleic acids” (Scientific Reports, 2016).

B1: HBc mutant S3A, expressed in HuH-7 cells (natural protein)
chain: MDIDPYKEFGATVELLSFLPSDFFPSVRDLLDTASALYREALESPEHCSPHHTALRQAILCWGELMTLATWVGVNLEDPASRDLVVSYVNTNMGLKFRQLLWFHISCLTFGRETVIEYLVSFGVWIRTPPAYRPPNAPILSTLPETTVVRRRGRAPRRRTPAPRRRRSQAPRRRRSQSRESQC
B2: HBc mutant S7A, expressed in HuH-7 cells (natural protein)
chain: MDIDPYKEFGATVELLSFLPSDFFPSVRDLLDTASALYREALESPEHCSPHHTALRQAILCWGELMTLATWVGVNLEDPASRDLVVSYVNTNMGLKFRQLLWFHISCLTFGRETVIEYLVSFGVWIRTPPAYRPPNAPILSTLPETTVVRRRGRAPRRRTPAPRRRRAQAPRRRRAQAREAQC
B3: HBc mutant S3D, expressed in HuH-7 cells (natural protein)
chain: MDIDPYKEFGATVELLSFLPSDFFPSVRDLLDTASALYREALESPEHCSPHHTALRQAILCWGELMTLATWVGVNLEDPASRDLVVSYVNTNMGLKFRQLLWFHISCLTFGRETVIEYLVSFGVWIRTPPAYRPPNAPILSTLPETTVVRRRGRDPRRRTPDPRRRRSQDPRRRRSQSRESQC
B4: HBc mutant S7D, expressed in HuH-7 cells (natural protein)
chain: MDIDPYKEFGATVELLSFLPSDFFPSVRDLLDTASALYREALESPEHCSPHHTALRQAILCWGELMTLATWVGVNLEDPASRDLVVSYVNTNMGLKFRQLLWFHISCLTFGRETVIEYLVSFGVWIRTPPAYRPPNAPILSTLPETTVVRRRGRDPRRRTPDPRRRRDQDPRRRRDQDREDQC
B5: HBc mutant S3D, E. coli-expressed (natural protein)
chain: MDIDPYKEFGATVELLSFLPSDFFPSVRDLLDTASALYREALESPEHCSPHHTALRQAILCWGELMTLATWVGVNLEDPASRDLVVSYVNTNMGLKFRQLLWFHISCLTFGRETVIEYLVSFGVWIRTPPAYRPPNAPILSTLPETTVVRRRGRDPRRRTPDPRRRRSQDPRRRRSQSRESQC
B6: HBc mutant S7D, E. coli-expressed (natural protein)
chain: MDIDPYKEFGATVELLSFLPSDFFPSVRDLLDTASALYREALESPEHCSPHHTALRQAILCWGELMTLATWVGVNLEDPASRDLVVSYVNTNMGLKFRQLLWFHISCLTFGRETVIEYLVSFGVWIRTPPAYRPPNAPILSTLPETTVVRRRGRDPRRRTPDPRRRRDQDPRRRRDQDREDQC

Target: the molecule itself
Test: native gel or EMSA
B1: binds.
B2: binds.
B3: binds.
B4: binds.
B5: binds.
B6: binds.
